B1: Protein phosphatase 2C homolog 4 (Schizosaccharomyces pombe (strain ATCC 38366 / 972)), O14156 (parent)
chain: MSIRFLKRLRAPLYIQNAYCSKNYFYRSFIQYYSPSNGPYLKISMNKAPQSLGLCTARGDSPTNQDRMAYGYLNNLKDTTNRDSPFFYGLFDGHGGTECSEFLSTNLGKIIENQDLNDTEKILKEVHSVGGYMAGLKPPFSLRTVLQSRDEDLLWRARLYYSFLQADMDYLTNYARPSPDSAVPGAVGTVAIITSKNNLSYWESDSYIIHLAHVGDTRALLCDSRTGRAHRLTFQHHPADVEEARRLRRYNMGFSRDSFGQKRFAWVANTRSFGDGYKLKKLGVVAEPQLTSIHSLRDDWSFLTLLSDGITDVVSDDEVVDIIKLSESPQDAANNIIRYAQNVGAVDDITCLVVRLPGWKKRTINDFTKNLRLEKSAYHPRRS
partner: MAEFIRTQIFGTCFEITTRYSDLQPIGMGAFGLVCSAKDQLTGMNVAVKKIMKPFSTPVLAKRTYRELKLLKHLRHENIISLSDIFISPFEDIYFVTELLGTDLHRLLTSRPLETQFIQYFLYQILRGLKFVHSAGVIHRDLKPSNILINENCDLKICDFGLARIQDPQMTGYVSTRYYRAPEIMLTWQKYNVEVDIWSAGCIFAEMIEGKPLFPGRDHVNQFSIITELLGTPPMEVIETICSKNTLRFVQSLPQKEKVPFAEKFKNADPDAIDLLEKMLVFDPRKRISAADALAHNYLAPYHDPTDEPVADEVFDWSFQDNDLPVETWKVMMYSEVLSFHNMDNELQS

Assays:
Settings in all cases: with hog1_schpo sty1, Q09892
hog1_schpo sty1, Q09892 [1] = variants of: B1
hog1_schpo sty1, Q09892 [2] = variants of: B1; remark: listed apart in the source
hog1_schpo sty1, Q09892 [3] = variants of: B1; remark: listed apart in the source

effect of a mutation on the interaction (hog1_schpo sty1, Q09892 [1]) | effect of a mutation on the interaction (hog1_schpo sty1, Q09892 [2]) | effect of a mutation on the interaction (hog1_schpo sty1, Q09892 [3]) | Variant
disrupting interaction | decreasing interaction |  | MSIRFLKALRAPLYIQNAYCSKNYFYRSFIQYYSPSNGPYLKISMNKAPQSLGLCTARGDSPTNQDRMAYGYLNNLKDTTNRDSPFFYGLFDGHGGTECSEFLSTNLGKIIENQDLNDTEKILKEVHSVGGYMAGLKPPFSLRTVLQSRDEDLLWRARLYYSFLQADMDYLTNYARPSPDSAVPGAVGTVAIITSKNNLSYWESDSYIIHLAHVGDTRALLCDSRTGRAHRLTFQHHPADVEEARRLRRYNMGFSRDSFGQKRFAWVANTRSFGDGYKLKKLGVVAEPQLTSIHSLRDDWSFLTLLSDGITDVVSDDEVVDIIKLSESPQDAANNIIRYAQNVGAVDDITCLVVRLPGWKKRTINDFTKNLRLEKSAYHPRRS [R8A]
disrupting interaction | decreasing interaction |  | MSIRFLKRLAAPLYIQNAYCSKNYFYRSFIQYYSPSNGPYLKISMNKAPQSLGLCTARGDSPTNQDRMAYGYLNNLKDTTNRDSPFFYGLFDGHGGTECSEFLSTNLGKIIENQDLNDTEKILKEVHSVGGYMAGLKPPFSLRTVLQSRDEDLLWRARLYYSFLQADMDYLTNYARPSPDSAVPGAVGTVAIITSKNNLSYWESDSYIIHLAHVGDTRALLCDSRTGRAHRLTFQHHPADVEEARRLRRYNMGFSRDSFGQKRFAWVANTRSFGDGYKLKKLGVVAEPQLTSIHSLRDDWSFLTLLSDGITDVVSDDEVVDIIKLSESPQDAANNIIRYAQNVGAVDDITCLVVRLPGWKKRTINDFTKNLRLEKSAYHPRRS [R10A]
disrupting interaction |  | decreasing interaction | MSIRFLKRLRAPLYIQNAYCSKNYFYASFIQYYSPSNGPYLKISMNKAPQSLGLCTARGDSPTNQDRMAYGYLNNLKDTTNRDSPFFYGLFDGHGGTECSEFLSTNLGKIIENQDLNDTEKILKEVHSVGGYMAGLKPPFSLRTVLQSRDEDLLWRARLYYSFLQADMDYLTNYARPSPDSAVPGAVGTVAIITSKNNLSYWESDSYIIHLAHVGDTRALLCDSRTGRAHRLTFQHHPADVEEARRLRRYNMGFSRDSFGQKRFAWVANTRSFGDGYKLKKLGVVAEPQLTSIHSLRDDWSFLTLLSDGITDVVSDDEVVDIIKLSESPQDAANNIIRYAQNVGAVDDITCLVVRLPGWKKRTINDFTKNLRLEKSAYHPRRS [R27A]

Source: IntAct's records for PubMed 22139357
